Where a chain is given by its changes, count along the chain named.
Columns and labels:
[1] = biological target: T1, recombinant human HGF (R&D Systems, Catalog No. 294-HGN-025) (human, UniProt P14210 32-728); assay: cell-based or functional assay
[2] = biological target: T1, recombinant human HGF (R&D Systems, …); assay: SPR, captured antibody, HGF injected, 25 C
Experimental: Mouse anti-human immunoglobulins (Jackson Labs, Catalog No. 209-005) or rabbit anti-mouse immunoglobulins (BIAcore, Catalog No. BR-1005-14) were immobilized on carboxymethylated dextran CM4 sensor chips (BIAcore, Catalog No. BR-1006-68) by amine coupling (BIAcore, Catalog No. BR-1000-50) using a standard coupling protocol according to manufacturer's instructions. […] The analyses were performed at 25° C. and 37° C. using PBS (GIBCO, Catalog No. 14040-133) containing 0.05% surfactant P20 (BIAcore, Catalog No. BR-1000-54), and 2 mg/mL BSA (EMD, Catalog No. 2930) as running buffer.
The antibodies were captured in an individual flow cell at a flow rate of […]. Injection time was variable for each antibody to yield approximately 20 RU of antibody captured for each cycle. […] The dissociation phase was monitored for 15 or 90 minutes, depending on concentration. The surface of mouse anti-human immunoglobulins sensor chips was then regenerated with 10 mM Glycine-HCl, pH 2.2 (BIAcore, Catalog No. BR-1003-54) injected for 3 minutes at a flow rate of 60 μL/min before another cycle was initiated. The surface of rabbit anti-mouse immunoglobulins sensor chips was regenerated with 10 mM Glycine-HCl, pH 1.7 (BIAcore, Catalog No. BR-1003-54) injected for 3 minutes at a flow rate of 60 μL/min before another cycle was initiated.
Kinetic parameters were determined using the kinetic function of the BIAevaluation software with reference subtraction.

[3] = biological target: T2, recombinant mouse HGF (R&D Systems) (mouse, UniProt Q08048 33-728); assay: SPR, antibody immobilized, HGF protein injected, 25 C
T2 construct: Bought protein, construct not described; also called rmHGF (R&D Systems); murine HGF
Experimental: (§1) Analyses were performed at 25° C. using PBS (GIBCO, Catalog No. 14040-133) containing 0.05% surfactant P20 (BIAcore, Catalog No. R-1000-54), 2 mg/mL BSA (EMD, Catalog No. 2930) and 10 mg/mL CM-Dextran Sodium salt (Fluka, Catalog No. 86524) as running buffer. […] The resulting binding was determined as resonance units (RU) over baseline 30 seconds after the end of injection. […] Non-specific binding was monitored by comparing binding to a control surface.

[4] = biological target: T3, recombinant mhm chimeric HGF protein containing human W507-L585 HGF sequence disposed within mouse HGF … (mouse-human-mouse chimera, UniProt Q08048 56-728); assay: as above
T3 construct: CHO supernatant; also called mhm chimera (W507-L585); MHM chimera (507-585)
T3 chain: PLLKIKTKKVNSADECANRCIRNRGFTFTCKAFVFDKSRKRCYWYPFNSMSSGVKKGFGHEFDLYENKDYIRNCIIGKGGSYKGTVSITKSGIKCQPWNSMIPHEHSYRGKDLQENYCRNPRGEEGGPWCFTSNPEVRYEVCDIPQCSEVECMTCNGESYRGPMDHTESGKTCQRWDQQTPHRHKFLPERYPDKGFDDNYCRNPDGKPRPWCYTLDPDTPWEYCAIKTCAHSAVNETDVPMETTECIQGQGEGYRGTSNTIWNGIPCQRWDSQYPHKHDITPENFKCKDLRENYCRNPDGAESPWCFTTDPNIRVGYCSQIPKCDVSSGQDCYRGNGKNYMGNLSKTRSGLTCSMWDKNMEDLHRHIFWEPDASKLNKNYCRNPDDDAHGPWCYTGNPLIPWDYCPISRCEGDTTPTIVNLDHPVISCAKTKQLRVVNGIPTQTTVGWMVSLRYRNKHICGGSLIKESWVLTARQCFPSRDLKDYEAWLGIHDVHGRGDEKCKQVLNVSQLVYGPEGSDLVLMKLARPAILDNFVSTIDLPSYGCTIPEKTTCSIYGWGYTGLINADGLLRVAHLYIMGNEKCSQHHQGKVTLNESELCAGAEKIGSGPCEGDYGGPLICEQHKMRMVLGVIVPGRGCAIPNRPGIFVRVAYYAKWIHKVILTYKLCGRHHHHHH
Experimental: as §1

[5] = biological target: T4, recombinant mhm chimeric HGF protein containing the region I499-R556 of hHGF disposed between murine sequences (mouse-human-mouse chimera, UniProt Q08048 56-728); assay: as above
T4 construct: also called mhm chimera (I499-R556)
T4 chain: T3 chain with Q443R, T445N, V446I, D499E, C502R, V505I, V508I, M523L
Experimental: as §1

T1 sequence (P14210 32-728 limits assumed): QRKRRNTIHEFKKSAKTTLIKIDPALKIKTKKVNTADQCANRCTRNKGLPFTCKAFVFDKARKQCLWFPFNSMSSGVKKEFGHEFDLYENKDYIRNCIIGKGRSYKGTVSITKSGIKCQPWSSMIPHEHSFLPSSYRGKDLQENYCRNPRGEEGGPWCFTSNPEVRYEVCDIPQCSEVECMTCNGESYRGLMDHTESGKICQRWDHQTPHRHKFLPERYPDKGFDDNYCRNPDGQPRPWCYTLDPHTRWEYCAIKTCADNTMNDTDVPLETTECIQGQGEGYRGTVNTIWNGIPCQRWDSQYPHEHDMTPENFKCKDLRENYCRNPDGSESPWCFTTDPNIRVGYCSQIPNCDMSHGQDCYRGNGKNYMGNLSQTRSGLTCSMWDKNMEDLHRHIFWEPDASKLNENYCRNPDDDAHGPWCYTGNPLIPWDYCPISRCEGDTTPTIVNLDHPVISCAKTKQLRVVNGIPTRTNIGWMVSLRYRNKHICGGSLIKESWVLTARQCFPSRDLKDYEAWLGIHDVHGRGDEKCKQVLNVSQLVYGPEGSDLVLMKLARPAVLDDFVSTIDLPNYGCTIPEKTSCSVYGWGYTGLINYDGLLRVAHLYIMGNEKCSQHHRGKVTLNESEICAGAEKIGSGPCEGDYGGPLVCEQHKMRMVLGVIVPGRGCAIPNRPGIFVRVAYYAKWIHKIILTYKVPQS
T2 sequence (Q08048 33-728 limits assumed): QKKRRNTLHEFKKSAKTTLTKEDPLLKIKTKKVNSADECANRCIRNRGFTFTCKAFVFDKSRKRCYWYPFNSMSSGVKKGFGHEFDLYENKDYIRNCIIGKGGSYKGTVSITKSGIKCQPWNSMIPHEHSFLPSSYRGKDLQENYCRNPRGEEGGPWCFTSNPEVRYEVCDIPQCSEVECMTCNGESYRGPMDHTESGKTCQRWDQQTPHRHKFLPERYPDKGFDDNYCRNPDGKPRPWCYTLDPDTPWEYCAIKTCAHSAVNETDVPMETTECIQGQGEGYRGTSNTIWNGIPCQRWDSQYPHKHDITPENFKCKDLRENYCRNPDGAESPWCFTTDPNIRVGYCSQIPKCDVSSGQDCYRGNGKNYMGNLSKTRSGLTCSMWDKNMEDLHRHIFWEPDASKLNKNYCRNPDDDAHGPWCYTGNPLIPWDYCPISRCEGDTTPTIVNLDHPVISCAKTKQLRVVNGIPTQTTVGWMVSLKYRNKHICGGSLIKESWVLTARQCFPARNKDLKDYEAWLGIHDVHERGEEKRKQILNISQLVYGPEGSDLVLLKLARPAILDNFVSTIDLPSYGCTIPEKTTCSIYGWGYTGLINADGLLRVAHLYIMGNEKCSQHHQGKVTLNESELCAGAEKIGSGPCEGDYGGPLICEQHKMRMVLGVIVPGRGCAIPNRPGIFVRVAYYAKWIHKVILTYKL

B1: HE2B8-4 (LRMR2B8HC + IgG1 constant region G1m(3) allotype allele 1, plus LRMR2B8LC + Kappa constant region Km(3) allotype allele 1) (antibody, V domains shown)
VH: QVQLVQPGAEVKKPGTSVKLSCKASGYTFTTYWMHWVRQAPGQGLEWIGEINPTNGHTNYNQKFQGRATLTVDKSTSTAYMELSSLRSEDTAVYYCARNYVGSIFDYWGQGTLLTVSS
VL: DIVMTQSPDSLAMSLGERVTLNCKASENVVSYVSWYQQKPGQSPKLLIYGASNRESGVPDRFSGSGSATDFTLTISSVQAEDVADYHCGQSYNYPYTFGQGTKLEIKR
notes: Human Engineered 2B8 variant, human IgG1 kappa, made in HEK293E cells
- EC50, inhibition of HGF-stimulated c-Met phosphorylation in PC-3 cells, Average of Two Trials [1]: 0.75 nM
- Kd [2]: 0.0056 nM
- koff [2]: 1.2e-05 s⁻¹
- kon [2]: 2e+06 M⁻¹ s⁻¹
- binding result [3]: no binding
- binding result [4]: binds
- binding result [5]: binds

B2: anti-hHGF monoclonal antibody 2B8 (antibody, mouse IgG1, kappa)
heavy: QVQLQQPGAELVKPGTSVKLSCKASGYTFTTYWMHWVNQRPGQGLEWIGEINPTNGHTNYNEKFKSKATLTVDKSSSTAYMQLSSLTSEDSAVYYCARNYVGSIFDYWGQGTTLTVSSAKTTPPSVYPLAPGSAAQTNSMVTLGCLVKGYFPEPVTVTWNSGSLSSGVHTFPAVLQSDLYTLSSSVTVPSSTWPSETVTCNVAHPASSTKVDKKIVPRDCGCKPCICTVPEVSSVFIFPPKPKDVLTITLTPKVTCVVVDISKDDPEVQFSWFVDDVEVHTAQTQPREEQFNSTFRSVSELPIMHQDWLNGKEFKCRVNSAAFPAPIEKTISKTKGRPKAPQVYTIPPPKEQMAKDKVSLTCMITDFFPEDITVEWQWNGQPAENYKNTQPIMDTDGSYFVYSKLNVQKSNWEAGNTFTCSVLHEGLHNHHTEKSLSHSPGK
light: NIVMTQSPKSMSMSVGERVTLSCKASENVVSYVSWYQQKPAQSPKLLIYGASNRNTGVPDRFTGSGSATDFTLTISSVRAEDLADYHCGQSYNYPYTFGGGTRLEIKRADAAPTVSIFPPSSEQLTSGGASVVCFLNNFYPKDINVKWKIDGSERQNGVLNSWTDQDSKDSTYSMSSTLTLTKDEYERHNSYTCEATHKTSTSPIVKSFNRNEC
notes: Murine IgG1 kappa from hybridoma; also called murine 2B8; mouse 2B8
- EC50, inhibition of HGF-stimulated c-Met phosphorylation in PC-3 cells, Average of Two Trials [1]: 0.91 nM
- Kd [2]: 0.0135 nM
- koff [2]: 2.1e-05 s⁻¹
- kon [2]: 1.6e+06 M⁻¹ s⁻¹
- binding result [3]: no binding
- binding result [4]: binds
- binding result [5]: binds

Source: patent publication US20140178935A1 (AVEO PHARMACEUTICALS, published 2014)
